Results as given in patent publication US12077763B2, “RNA-based control of powdery mildew” (Greenlight Biosciences, Inc., priority 2021, dated 2024).

B1: GS3625 (nucleic acid)
sense: GUUUGCCUUUCCAAAUAUCCAUCAUGCAGCUUUGUAACGUACCUCUCGUCCUGUUUGGUCUCCUCUGCUUUGGACUAGUUUCAACUGCUCCAGCACCAAACUCACCUUGGCAUCUACGAAGCCGACAGGAAGGUGGUGGCUACUAUGGCCAACCAUCGAAUGGUGAUGGAAGUGUGUAUCCACCUUCAUCUGGUACAGGUGGCUUUCUAUCGCCAACUGCUACGAGCGGUUAUCCGUCUGCAACUGGAACUGGCGGCUAUUCAUCUCCAUCGGGCACCGGUGGCUACCCGUCUGCAACAGGUACAGGUGGUUACGCAUCGCCAACAGGGACCAGUUACCCUACACCUACUGGAGGUUACUCUGAAGAGCCCUACCACUAUAAAGGUGUCAAGCUAGGUC
antisense: GACCUAGCUUGACACCUUUAUAGUGGUAGGGCUCUUCAGAGUAACCUCCAGUAGGUGUAGGGUAACUGGUCCCUGUUGGCGAUGCGUAACCACCUGUACCUGUUGCAGACGGGUAGCCACCGGUGCCCGAUGGAGAUGAAUAGCCGCCAGUUCCAGUUGCAGACGGAUAACCGCUCGUAGCAGUUGGCGAUAGAAAGCCACCUGUACCAGAUGAAGGUGGAUACACACUUCCAUCACCAUUCGAUGGUUGGCCAUAGUAGCCACCACCUUCCUGUCGGCUUCGUAGAUGCCAAGGUGAGUUUGGUGCUGGAGCAGUUGAAACUAGUCCAAAGCAGAGGAGACCAAACAGGACGAGAGGUACGUUACAAAGCUGCAUGAUGGAUAUUUGGAAAGGCAAAC
B2: GS3673 (nucleic acid)
sense: AACUACUAACCUCGCCGCCCUAUAUAAGAAGAUGGGAACGCAAAAUCGUGUCAAUUUGAAAGAAAAGUUAAAAGGAAUGCGAAUCCAAAUCACACAUCUGCCCCCAAAGAUUAAUAAAACAACCGGAAAGGUUAUACCAAGGAUUAAAACCAUUCAAGGCCUUGCAAAUAUUAAUGAUGGUGCCAAAGAGGAGCAUCGACCAGAGGUUGCUGGAUAUGGUGCUGGUCCUCAAAAGGUCAAGUUUUGGGUAUCUGAAGAUACUGGCACUUCUAAAACCAGCCAAAAAAACCCCUUGCCAUCUAACACUUACAUCAGUGUAUAUGAUUACUUCAAAAAAAGAUACCCAAAGAUUGAAUUGGAUCCAAUAAAUCCUGUAGUUAAUGUUGGAAACAGUGAA
antisense: UUCACUGUUUCCAACAUUAACUACAGGAUUUAUUGGAUCCAAUUCAAUCUUUGGGUAUCUUUUUUUGAAGUAAUCAUAUACACUGAUGUAAGUGUUAGAUGGCAAGGGGUUUUUUUGGCUGGUUUUAGAAGUGCCAGUAUCUUCAGAUACCCAAAACUUGACCUUUUGAGGACCAGCACCAUAUCCAGCAACCUCUGGUCGAUGCUCCUCUUUGGCACCAUCAUUAAUAUUUGCAAGGCCUUGAAUGGUUUUAAUCCUUGGUAUAACCUUUCCGGUUGUUUUAUUAAUCUUUGGGGGCAGAUGUGUGAUUUGGAUUCGCAUUCCUUUUAACUUUUCUUUCAAAUUGACACGAUUUUGCGUUCCCAUCUUCUUAUAUAGGGCGGCGAGGUUAGUAGUU
B3: GS3623 (nucleic acid)
sense: AGUUUCUUACGUUGUAGCGCCGAAGCUUCUCUAAGUUUAAUCUCUGAUGGAGAUAAAACGUUAUAUAUAGGCGUACCAACAGCAAUUGUCCCCUCUUUAAGUAGAUAUAACUUUCGCUUAUCUUUGUCUCGGUCAGUGCGGAAGUUUGUCCCAGCUUCUGUAAGUUUUACAGCUUUUUCUCGAUUAACUGCUCUUGACACUUGAAGUACGCGACCUUCUAUUGUGUAUAAGCCAUUCUUAUCAGCAGUUUCAUCCUCUAAAAUAGAGUUUUUAGCUUUAACAGCGUUUGCACCACUUUUGAAGGUACGAGGUGCACCAUGGUAACAAGAGUCCGCAUCUUCUUGUCUAUA
antisense: UAUAGACAAGAAGAUGCGGACUCUUGUUACCAUGGUGCACCUCGUACCUUCAAAAGUGGUGCAAACGCUGUUAAAGCUAAAAACUCUAUUUUAGAGGAUGAAACUGCUGAUAAGAAUGGCUUAUACACAAUAGAAGGUCGCGUACUUCAAGUGUCAAGAGCAGUUAAUCGAGAAAAAGCUGUAAAACUUACAGAAGCUGGGACAAACUUCCGCACUGACCGAGACAAAGAUAAGCGAAAGUUAUAUCUACUUAAAGAGGGGACAAUUGCUGUUGGUACGCCUAUAUAUAACGUUUUAUCUCCAUCAGAGAUUAAACUUAGAGAAGCUUCGGCGCUACAACGUAAGAAACU
B4: GS3916 (nucleic acid)
sense: UUACAAUCCAUGCACCAUCCAUUAAGCGAAAAUAAACCAUCACUGUUGAGAAAGAAGUUAAACGUGAUUUGAGCUGUUAUAAGAGUUGAGUUUAACACAGUAUUUUGAAUUUGUUCUAAUCCUGUACUUGCUAUUUUUGAAUCUUCGAGUGAUGGUGCAAGAUCAACGUUGAAGUGUAUGAUAGAAUCUGGUGCAGUUUCGGUACUUAAGUACAGAUAUGUUGCAAUGCCAAAACUAUCACUAGCACCACGCAUAGCAAAGAAAAUAUCGGGAUUUGUAUCAUCACUGGCGAAAAUUUCCUGUCCAUCAGCAAGAAUAACAUCCAUACCAACGAUGUGAUCA
antisense: UGAUCACAUCGUUGGUAUGGAUGUUAUUCUUGCUGAUGGACAGGAAAUUUUCGCCAGUGAUGAUACAAAUCCCGAUAUUUUCUUUGCUAUGCGUGGUGCUAGUGAUAGUUUUGGCAUUGCAACAUAUCUGUACUUAAGUACCGAAACUGCACCAGAUUCUAUCAUACACUUCAACGUUGAUCUUGCACCAUCACUCGAAGAUUCAAAAAUAGCAAGUACAGGAUUAGAACAAAUUCAAAAUACUGUGUUAAACUCAACUCUUAUAACAGCUCAAAUCACGUUUAACUUCUUUCUCAACAGUGAUGGUUUAUUUUCGCUUAAUGGAUGGUGCAUGGAUUGUAA
B5: GS3626 (nucleic acid)
sense: GCAGCUUUGUAACGUACCUCUCGUCCUGUUUGGUCUCCUCUGCUUUGGACUAGUUUCAACUGCUCCAGCACCAAACUCACCUUGGCAUCUACGAAGCCGACAGGAAGGUGGUGGCUACUAUGGCCAACCAUCGAAUGGUGAUGGAAGUGUGUAUCCACCUUCAUCUGGUACAGGUGGCUUUCUAUCGCCAACUGCUACGAGCGGUUAUCCGUCUGCAACUGGAACUGGCGGCUAUUCAUCUCCAUCGGGCACCGGUGGCUACCCGUCUGCAACAGGUACAGGUGGUUACGCAUCGCCAACAGGGACCAGUUACCCUACACCUACUGGAGGUUACUCUGAAGAGCCCUAC
antisense: GUAGGGCUCUUCAGAGUAACCUCCAGUAGGUGUAGGGUAACUGGUCCCUGUUGGCGAUGCGUAACCACCUGUACCUGUUGCAGACGGGUAGCCACCGGUGCCCGAUGGAGAUGAAUAGCCGCCAGUUCCAGUUGCAGACGGAUAACCGCUCGUAGCAGUUGGCGAUAGAAAGCCACCUGUACCAGAUGAAGGUGGAUACACACUUCCAUCACCAUUCGAUGGUUGGCCAUAGUAGCCACCACCUUCCUGUCGGCUUCGUAGAUGCCAAGGUGAGUUUGGUGCUGGAGCAGUUGAAACUAGUCCAAAGCAGAGGAGACCAAACAGGACGAGAGGUACGUUACAAAGCUGC
B6: GS3672 (nucleic acid)
sense: UUCCUGGACAACCAGUAAAGAAAAAGUUGGGACCAAAUCAAACACAAGAAAUGAUAAAGUUUGCAUGUCGAACACCUGCCCAAAAUGCUACCUCAGUUGUUCAAGAUGGAAGACAUGUUUUGAGCCUGAACUCUAGCAACCCUGUUCUAUCUGAAUUUGGCCUUCAAGUAGGUCAGUCUUUGAUAUCAGUAAAUGCUCGAGUACUACAACCACCGUCUGUGAGAUAUGGAGGAUCUGGAAGUCUAUCACCGAGAAAUGGUAGUUGGAAUAUGAUUAACGUGAGAUUUCAUACACCCGCCAAAAUCGGACCAUGGACUUGUAUUAUGUUUCCCACCCAAGGAAGAAAUGACAUUGAUGUUGGUAAUAUGAGAUCACAUGUCACUGCUUUCCAAGCACA
antisense: UGUGCUUGGAAAGCAGUGACAUGUGAUCUCAUAUUACCAACAUCAAUGUCAUUUCUUCCUUGGGUGGGAAACAUAAUACAAGUCCAUGGUCCGAUUUUGGCGGGUGUAUGAAAUCUCACGUUAAUCAUAUUCCAACUACCAUUUCUCGGUGAUAGACUUCCAGAUCCUCCAUAUCUCACAGACGGUGGUUGUAGUACUCGAGCAUUUACUGAUAUCAAAGACUGACCUACUUGAAGGCCAAAUUCAGAUAGAACAGGGUUGCUAGAGUUCAGGCUCAAAACAUGUCUUCCAUCUUGAACAACUGAGGUAGCAUUUUGGGCAGGUGUUCGACAUGCAAACUUUAUCAUUUCUUGUGUUUGAUUUGGUCCCAACUUUUUCUUUACUGGUUGUCCAGGAA
B7: GS3628 (nucleic acid)
sense: UAGUUUCAACUGCUCCAGCACCAAACUCACCUUGGCAUCUACGAAGCCGACAGGAAGGUGGUGGCUACUAUGGCCAACCAUCGAAUGGUGAUGGAAGUGUGUAUCCACCUUCAUCUGGUACAGGUGGCUUUCUAUCGCCAACUGCUACGAGCGGUUAUCCGUCUGCAACUGGAACUGGCGGCUAUUCAUCUCCAUCGGGCACCGGUGGCUACCCGUCUGCAACAGGUACAGGUGGUUACGCAUCGCCAA
antisense: UUGGCGAUGCGUAACCACCUGUACCUGUUGCAGACGGGUAGCCACCGGUGCCCGAUGGAGAUGAAUAGCCGCCAGUUCCAGUUGCAGACGGAUAACCGCUCGUAGCAGUUGGCGAUAGAAAGCCACCUGUACCAGAUGAAGGUGGAUACACACUUCCAUCACCAUUCGAUGGUUGGCCAUAGUAGCCACCACCUUCCUGUCGGCUUCGUAGAUGCCAAGGUGAGUUUGGUGCUGGAGCAGUUGAAACUA
B8: GS3627 (nucleic acid)
sense: CUGUUUGGUCUCCUCUGCUUUGGACUAGUUUCAACUGCUCCAGCACCAAACUCACCUUGGCAUCUACGAAGCCGACAGGAAGGUGGUGGCUACUAUGGCCAACCAUCGAAUGGUGAUGGAAGUGUGUAUCCACCUUCAUCUGGUACAGGUGGCUUUCUAUCGCCAACUGCUACGAGCGGUUAUCCGUCUGCAACUGGAACUGGCGGCUAUUCAUCUCCAUCGGGCACCGGUGGCUACCCGUCUGCAACAGGUACAGGUGGUUACGCAUCGCCAACAGGGACCAGUUACCCUACACCUAC
antisense: GUAGGUGUAGGGUAACUGGUCCCUGUUGGCGAUGCGUAACCACCUGUACCUGUUGCAGACGGGUAGCCACCGGUGCCCGAUGGAGAUGAAUAGCCGCCAGUUCCAGUUGCAGACGGAUAACCGCUCGUAGCAGUUGGCGAUAGAAAGCCACCUGUACCAGAUGAAGGUGGAUACACACUUCCAUCACCAUUCGAUGGUUGGCCAUAGUAGCCACCACCUUCCUGUCGGCUUCGUAGAUGCCAAGGUGAGUUUGGUGCUGGAGCAGUUGAAACUAGUCCAAAGCAGAGGAGACCAAACAG

Tested on: E. necator
Assay: Leaf disc assay, dry inoculum (settling tower), decrease in disease severity / hyphal growth (Example 2)
Settings: decrease in disease severity (hyphal growth) relative to untreated control; time point 1 (untreated control hyphal growth ≥50%); value ± SE

Molecule | % decrease =/− SE TP1 [%]
B1 | 1 ± 2
B2 | 34 ± 4
B3 | 20 ± 3
B4 | 11 ± 9
B5 | 3 ± 7
B6 | 34 ± 4
B7 | 12 ± 2
B8 | 30 ± 3

Same assay, conditions: decrease in disease severity (hyphal growth) relative to untreated control; time point 2; value ± SE

Molecule | % decrease =/− SE TP2 [%]
B1 | 0 ± 3
B2 | 29 ± 6
B5 | 26 ± 7
B6 | 26 ± 7
B7 | 7 ± 5
B8 | 29 ± 6
